# Measurements taken from the supplement of paper PMC9170038.
# Test system: K4 kissing-loop RNA reporter
# Assay: apparent KD of K4 kissing-loop reporter; higher = weaker reporter binding
# Settings: Eterna round: R107
# Experimental: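 RNA-MaP round R107: designed RNA switches with theophylline, tryptophan, arginine or FMN aptamers are transcribed on-chip within common flanks. They are titrated with a labelled K4 kissing-loop RNA reporter in RNA-MaP buffer (100 mM Tris pH 7.5, 80 mM KCl, 4 mM MgCl2), without ligand or with the indicated ligand. Median apparent KD per design.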
# [1] = input ligand: theophylline 20 uM
# [2] = input ligand: tryptophan 2.4 mM
# 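Further: bound reporter read as fluorescence of individual clusters on recovered sequencing chips by microscopy, with normalized cluster intensities fitted with a binding model.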
Sequence,apparent KD of K4 kissing-loop reporter (input ligand: FMN 200 uM),apparent KD of K4 kissing-loop reporter (input ligand: arginine 13.2 mM),apparent KD of K4 kissing-loop reporter (input ligand: none),apparent KD of K4 kissing-loop reporter [1],apparent KD of K4 kissing-loop reporter [2]
UUAAUAAUUCAAGGAUAUGUUUUCUAUUUCGAGUGAUGUUCGGAAUUAAUAAAUUUAAAAGAUUAUACAGAAGGUGAUAGAUAGU [Cynwulf-mod#3],89.5 nM,82.5 nM,90.9 nM,88.1 nM,75.9 nM
UGUGUUUACCUGACUCAGUGAUGUUGAGAAGGAGCGUGAGAAAUCACAGGUAGGUCGCUCAACCUAAAUUCAGGUGAGCACUAAA,268 nM,197 nM,325 nM,277 nM,253 nM
UUUAAAUAUAGUGAUGUUAUAUAACAAUGACGAGGACCGGUACGGCCGCCACUCGAGAGAGAUAAUGGUCGUUAGAAUCUAACGC [AstrosSSTryA#5],760 nM,778 nM,685 nM,963 nM,484 nM
UUAGCCCUAUAGGGCAAGACCUAUACUGAUACCAGAGGGUAUACCCUCCCUUGGCAGCGGAUCGAGUGAUGUUCGUAAGGUCAUU [AK4.4 SS Theophylline A],741 nM,730 nM,844 nM,776 nM,572 nM
ACCUACGAUCACAAAAGUGAUUGUAGGAUCUAGGAUAUGCUGAAGAGCAGAAGGAGAGUGAUGUUCUCAACUCACGAAAGUGAGA [whbob_Ex_FMNA__2th188],382 nM,222 nM,198 nM,258 nM,175 nM
UUUCAAAUUUAAGGAUAUUAGAUACCAGGAAAGGAGUGAUGUUCCGUGCUACGAUAGUGCUAGGGCUAAGAAGGUAAGUCUCGAG [theeternabot_sameState_KL_FMN_B_37],79.1 nM,87.2 nM,85.6 nM,89.6 nM,59.1 nM
AAUAACUAGUAUUUUUUUAAUAAUACAGAUACCAGUGAUAAUAAACACCCUUGGCAGCUGAUCGAGUGAUGUUCGUUUAUUUUAA [JR_SSTheophyA_Sub003],57.3 nM,83.3 nM,64 nM,112 nM,54 nM
GCCUGGGCACGAAGGAGCGCCGUGACAGGUUACUGCCGUGGGCAGUGAUGUUGCUCAAUCUGGCAGGUAGGUCGCGUGCCCAGGC,137 nM,86 nM,184 nM,107 nM,121 nM
AGGGUUUAGGACGAUACCAGCCUGGAGGCCAGUGAUGUUGGCCGAUUUGAACAGAAUUAAGGCCCUUGGCAGCGUAUCUAAAACC [Esamaza],280 nM,291 nM,320 nM,161 nM,259 nM
ACUUAGAAUGAAGGAUAUUGGUUACGAGGGCUAACCAAAACGGAUCACUUGUCCAGUGAUGUUGUCCAAGAAGGUCACGUUAAAC [theeternabot_exclusion_KL_FMN_B_44],776 nM,665 nM,868 nM,492 nM,576 nM
UUUUUAAUCGCAGAUACCAGUCCAGAAUAAAUACUAUAGUGAUGUUAUAUAUAAGGAAAGGACCCUUGGCAGCUGUACUAUAUUU [AstrosSsTheB#8],411 nM,322 nM,392 nM,245 nM,346 nM
AAUAAAAUCACGGCCGCCACUGAUGCUAAUAUUAGCAGUGAUGUUGCUAUGUAUAUUUUAUUUAACAGGACCGGGUGAAUAUUUA [JR_ExcTryptoB_Sub014],225 nM,184 nM,228 nM,212 nM,133 nM
GGGAGGAGUGGUGUUGAUUAAGAAGCGGAAGGAGCGCCGAAGAAGGCAGGUAGGUCGCCGAAAUAUAGUGAUGUUAUAUAAAGGG [ExArg.C],340 nM,198 nM,281 nM,262 nM,208 nM
AGAAGAUAUCGUGAUACCAGACCGCGGAGAGGCCGGAAGAGGGUAGUGAUGUUGCAUGCAGUCCCUUGGCAGCACUGACAGUAUU [theeternabot_sameState_KL_Theo_B_40],754 nM,287 nM,694 nM,539 nM,601 nM
UUCUUGAUGGAAACAUCGAGUAUUACUGAUACCAGUAUCGAUAGAUACCCUUGGCAGCAGAAUCAGUAAUAACGAGUGAUGUUCG [Ex Theophylline A K4 5],509 nM,494 nM,505 nM,567 nM,480 nM
